Data as given in the supplement of paper PMC9112550, “Optimization of the antimicrobial peptide Bac7 by deep mutational scanning” (BMC Biology, 2022).

Test system: Escherichia coli TOP10
Assay: shrunken log2 fold change of peptide-encoding DNA abundance (4.5 h post-induction vs induction); higher = less antimicrobial activity (less host growth inhibition)
Details: time post-induction: 4.5 h; library: site-saturation at positions 5, 18, 19, 20
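Further: peptides expressed intracellularly from a pBAD plasmid library in pooled LB shake-flask culture, induced with 0.3% L-arabinose, DNA abundance read by NGS, three biological replicates, DESeq2 with apeglm shrinkage.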

Row | Sequence | shrunken log2 fold change
1 | RRIRKRPPRLPRPRPRPQWCPRP | 0.149
2 | RRIRERPPRLPRPRPRPWVVPRP | -0.151
3 | RRIRLRPPRLPRPRPRPRWGPRP | 0.175
4 | RRIRNRPPRLPRPRPRPFFKPRP | 0.0559
5 | RRIRQRPPRLPRPRPRPSWYPRP | -0.0733
6 | RRIRCRPPRLPRPRPRPCHYPRP | -0.403
7 | RRIRHRPPRLPRPRPRPMNMPRP | -0.00968
8 | RRIRDRPPRLPRPRPRPKFEPRP | -0.0187
9 | RRIRDRPPRLPRPRPRPTWEPRP | 1.13
10 | RRIRRRPPRLPRPRPRPAHVPRP | 0.0907
11 | RRIRERPPRLPRPRPRPFWQPRP | -0.0859
12 | RRIRLRPPRLPRPRPRPWDKPRP | -0.0731
13 | RRIRHRPPRLPRPRPRPSVHPRP | -0.204
14 | RRIRQRPPRLPRPRPRPCFNPRP | -0.161
15 | RRIRWRPPRLPRPRPRPSATPRP | 0.985
16 | RRIRWRPPRLPRPRPRPWPNPRP | 0.0899
17 | RRIRGRPPRLPRPRPRPHYTPRP | -0.379
18 | RRIRHRPPRLPRPRPRPYDDPRP | -0.00822
19 | RRIRKRPPRLPRPRPRPDGGPRP | 0.157
20 | RRIRQRPPRLPRPRPRPLKWPRP | 0.0646
21 | RRIRVRPPRLPRPRPRPCHMPRP | -0.19
22 | RRIRMRPPRLPRPRPRPVNRPRP | 0.105
23 | RRIRSRPPRLPRPRPRPKIEPRP | -0.0199
24 | RRIRWRPPRLPRPRPRPMAMPRP | 0.00646
25 | RRIRMRPPRLPRPRPRPNLPPRP | -0.0556

Row | Sequence | shrunken log2 fold change
26 | RRIRYRPPRLPRPRPRPEMGPRP | -0.0771
27 | RRIRFRPPRLPRPRPRPIHGPRP | -0.0163
28 | RRIRRRPPRLPRPRPRPEFCPRP | 0.579
29 | RRIRCRPPRLPRPRPRPIPLPRP | 0.148
30 | RRIRERPPRLPRPRPRPYFTPRP | -0.971
31 | RRIRHRPPRLPRPRPRPTTVPRP | -0.0474
32 | RRIRGRPPRLPRPRPRPRCMPRP | 0.364
33 | RRIRWRPPRLPRPRPRPSQQPRP | -0.002
34 | RRIRTRPPRLPRPRPRPKIDPRP | -0.0576
35 | RRIRKRPPRLPRPRPRPRFDPRP | 0.19
36 | RRIRCRPPRLPRPRPRPPTEPRP | 1.77
37 | RRIRPRPPRLPRPRPRPGKVPRP | -0.0669
38 | RRIRSRPPRLPRPRPRPRRQPRP | 0.681
39 | RRIRWRPPRLPRPRPRPVHKPRP | 0.0181
40 | RRIRTRPPRLPRPRPRPPDPPRP | 0.197
41 | RRIRMRPPRLPRPRPRPFWMPRP | 0.154
42 | RRIRFRPPRLPRPRPRPAEMPRP | 0.00299
43 | RRIRERPPRLPRPRPRPPVVPRP | -0.0806
44 | RRIRTRPPRLPRPRPRPQSTPRP | -0.236
45 | RRIRVRPPRLPRPRPRPQAAPRP | 0.0662
46 | RRIRKRPPRLPRPRPRPRLGPRP | 0.587
47 | RRIRIRPPRLPRPRPRPLPQPRP | -0.247
48 | RRIRCRPPRLPRPRPRPEKWPRP | -0.0207
49 | RRIRNRPPRLPRPRPRPPMHPRP | 0.0449
50 | RRIRSRPPRLPRPRPRPFSGPRP | -0.134

Row | Sequence | shrunken log2 fold change
51 | RRIRYRPPRLPRPRPRPPNEPRP | -0.106
52 | RRIRGRPPRLPRPRPRPRKLPRP | 0.86
53 | RRIRQRPPRLPRPRPRPEMRPRP | 1.13
54 | RRIRWRPPRLPRPRPRPNGIPRP | 0.0301
55 | RRIRQRPPRLPRPRPRPCNKPRP | 0.0281
56 | RRIRSRPPRLPRPRPRPDQKPRP | -0.00231
57 | RRIRMRPPRLPRPRPRPVMKPRP | 0.0713
58 | RRIRQRPPRLPRPRPRPYQKPRP | -0.0335
59 | RRIRDRPPRLPRPRPRPLQTPRP | 0.135
60 | RRIRFRPPRLPRPRPRPITNPRP | -0.352
61 | RRIRTRPPRLPRPRPRPNRRPRP | 0.0696
62 | RRIRCRPPRLPRPRPRPACRPRP | 0.128
63 | RRIRWRPPRLPRPRPRPTNLPRP | -0.0698
64 | RRIRWRPPRLPRPRPRPRLLPRP | 0.178
65 | RRIRGRPPRLPRPRPRPNRFPRP | 0.282
66 | RRIRIRPPRLPRPRPRPVEEPRP | -0.0729
67 | RRIRLRPPRLPRPRPRPHVYPRP | -0.211
68 | RRIRARPPRLPRPRPRPNNSPRP | -0.483
69 | RRIRERPPRLPRPRPRPPYLPRP | -0.0371
70 | RRIRMRPPRLPRPRPRPFEMPRP | 0.0316
71 | RRIRLRPPRLPRPRPRPHYWPRP | -0.356
72 | RRIRVRPPRLPRPRPRPHIHPRP | -0.545
73 | RRIRDRPPRLPRPRPRPLNCPRP | -0.0225
74 | RRIRPRPPRLPRPRPRPCGVPRP | 0.205
75 | RRIRPRPPRLPRPRPRPIILPRP | -0.0642

Row | Sequence | shrunken log2 fold change
76 | RRIRTRPPRLPRPRPRPYIQPRP | -0.274
77 | RRIRWRPPRLPRPRPRPWRSPRP | 0.49
78 | RRIRERPPRLPRPRPRPHKFPRP | -0.984
79 | RRIRKRPPRLPRPRPRPFWFPRP | 0.247
80 | RRIRVRPPRLPRPRPRPRWGPRP | 0.157
81 | RRIRVRPPRLPRPRPRPWMNPRP | -0.00133
82 | RRIRRRPPRLPRPRPRPENGPRP | 0.401
83 | RRIRPRPPRLPRPRPRPYNWPRP | -0.731
84 | RRIRTRPPRLPRPRPRPYQYPRP | -0.546
85 | RRIRNRPPRLPRPRPRPDSEPRP | -0.0671
86 | RRIRARPPRLPRPRPRPREYPRP | 0.5
87 | RRIRFRPPRLPRPRPRPNRFPRP | -0.174
88 | RRIRSRPPRLPRPRPRPMCPPRP | -0.0743
89 | RRIRGRPPRLPRPRPRPAIPPRP | -0.0508
90 | RRIRNRPPRLPRPRPRPGWTPRP | 0.0174
91 | RRIRERPPRLPRPRPRPWYAPRP | -0.137
92 | RRIRRRPPRLPRPRPRPGYKPRP | -0.0679
93 | RRIRPRPPRLPRPRPRPTQFPRP | 0.274
94 | RRIRYRPPRLPRPRPRPAHDPRP | -1.14
95 | RRIRCRPPRLPRPRPRPLWPPRP | 0.076
96 | RRIRMRPPRLPRPRPRPQEYPRP | -0.0485
97 | RRIRYRPPRLPRPRPRPTFNPRP | -0.73
98 | RRIRERPPRLPRPRPRPEKKPRP | -0.0578
99 | RRIRFRPPRLPRPRPRPDFNPRP | -0.637
100 | RRIRTRPPRLPRPRPRPPVTPRP | 0.361

Row | Sequence | shrunken log2 fold change
101 | RRIRKRPPRLPRPRPRPLGVPRP | 0.438
102 | RRIRLRPPRLPRPRPRPVIDPRP | -0.182
103 | RRIRERPPRLPRPRPRPYSEPRP | -0.157
104 | RRIRVRPPRLPRPRPRPGLNPRP | -0.00582
105 | RRIRVRPPRLPRPRPRPCKEPRP | -0.335
106 | RRIRHRPPRLPRPRPRPIDTPRP | -0.291
107 | RRIRDRPPRLPRPRPRPWTPPRP | -0.0489
108 | RRIRYRPPRLPRPRPRPRDLPRP | -0.372
109 | RRIRCRPPRLPRPRPRPAMPPRP | -0.054
110 | RRIRDRPPRLPRPRPRPSGTPRP | -0.199
111 | RRIRWRPPRLPRPRPRPLVNPRP | -0.0798
112 | RRIRMRPPRLPRPRPRPSCMPRP | -0.0641
113 | RRIRNRPPRLPRPRPRPQSRPRP | 0.181
114 | RRIRTRPPRLPRPRPRPICHPRP | 0.055
115 | RRIRKRPPRLPRPRPRPHLVPRP | 0.0297
116 | RRIRKRPPRLPRPRPRPPMHPRP | 0.636
117 | RRIRFRPPRLPRPRPRPRGGPRP | 0.9
118 | RRIRYRPPRLPRPRPRPSDEPRP | -0.0199
119 | RRIRSRPPRLPRPRPRPNEKPRP | -0.0451
120 | RRIRSRPPRLPRPRPRPTMGPRP | -0.238
121 | RRIRARPPRLPRPRPRPYFYPRP | -0.619
122 | RRIRFRPPRLPRPRPRPPIDPRP | 0.113
123 | RRIRKRPPRLPRPRPRPMNMPRP | -0.0791
124 | RRIRVRPPRLPRPRPRPWREPRP | 0.0932
125 | RRIRERPPRLPRPRPRPMRRPRP | -0.0292

Row | Sequence | shrunken log2 fold change
126 | RRIRYRPPRLPRPRPRPWFNPRP | -0.0994
127 | RRIRDRPPRLPRPRPRPRRCPRP | 0.142
128 | RRIRLRPPRLPRPRPRPPGWPRP | 0.218
129 | RRIRKRPPRLPRPRPRPEYFPRP | 0.084
130 | RRIRCRPPRLPRPRPRPQPKPRP | 0.273
131 | RRIRIRPPRLPRPRPRPTQQPRP | 0.0936
132 | RRIRNRPPRLPRPRPRPQVCPRP | 0.0261
133 | RRIRWRPPRLPRPRPRPVKWPRP | -0.0659
134 | RRIRDRPPRLPRPRPRPKITPRP | -0.375
135 | RRIRRRPPRLPRPRPRPQMAPRP | 0.455
136 | RRIRWRPPRLPRPRPRPRMTPRP | 0.394
137 | RRIRLRPPRLPRPRPRPWNTPRP | -0.444
138 | RRIRGRPPRLPRPRPRPPRQPRP | 1.27
139 | RRIRERPPRLPRPRPRPEPPPRP | 0.595
140 | RRIRIRPPRLPRPRPRPHMAPRP | -0.367
141 | RRIRKRPPRLPRPRPRPHDWPRP | 0.31
142 | RRIRRRPPRLPRPRPRPKEDPRP | 0.196
143 | RRIRCRPPRLPRPRPRPMNYPRP | -0.226
144 | RRIRPRPPRLPRPRPRPPGEPRP | 0.00468
145 | RRIRVRPPRLPRPRPRPAMEPRP | -0.139
146 | RRIRPRPPRLPRPRPRPPVGPRP | 0.557
147 | RRIRQRPPRLPRPRPRPMGMPRP | 0.0187
148 | RRIRDRPPRLPRPRPRPHWFPRP | 0.0318
149 | RRIRIRPPRLPRPRPRPYMYPRP | -0.91
150 | RRIRSRPPRLPRPRPRPMHAPRP | 0.562
